Changes are numbered by the printed parent chain. In names and notes the source's numbering stands. Like-named read-outs stand apart in the source and are kept apart here. Values belong to the binder of their own block, whether it stands above or below them.
What was measured:
[1] = molecular target: IL-2 receptor (human); experiment: cell-based or functional assay
[2] = molecular target: T1, human NKp46 (human, UniProt O76036 22-304); experiment: flow cytometry, HEK293F cells transfected with human NKp46
T1 construct: also called CD335; NCR1
T1 sequence (O76036 22-304 Q82K): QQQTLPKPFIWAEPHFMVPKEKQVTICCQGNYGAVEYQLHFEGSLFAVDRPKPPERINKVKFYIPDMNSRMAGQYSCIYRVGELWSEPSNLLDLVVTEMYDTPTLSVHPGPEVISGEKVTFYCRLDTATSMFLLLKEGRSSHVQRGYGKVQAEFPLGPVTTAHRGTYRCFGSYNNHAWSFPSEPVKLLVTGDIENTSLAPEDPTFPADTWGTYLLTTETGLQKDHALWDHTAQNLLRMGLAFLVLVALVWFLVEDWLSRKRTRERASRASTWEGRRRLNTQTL
Procedure: (§1) Binding of NKp46-binding polypeptides formatted as VHH-Fc fusion proteins was assessed by flow cytometry. An IgG1-Fc lacking a hinge, or a homodimeric Fc (FIG. 1I-1J) was used (the Fc lacking a hinge is annotated as Fc*). HEK293F cells were transiently transfected with a plasmid encoding full-length human NKp46, cynomolgus NKp46, or mouse NKp46, followed by an IRES and GFP. Transfected cells expressing NKp46 and GFP were used to measure binding of the polypeptides. The transfected cells were plated in a 96-well plate at 30,000 cells per well in FACS buffer (PBS, 1% BSA, 0.1% NaN₃, pH 7.4). Untransfected HEK293F cells were used as a NKp46-negative control and plated at 30,000 cells per well in a separate plate. Test polypeptides were then diluted to two times the final concentration of 1000 nM, and a 3-, 4-, or 5-fold, serial dilution was made. A final column was left with only FACS buffer as a secondary-only control. Test article dilutions were added to an equal volume of cells, and assay plates were incubated for 30 minutes at 4° C. After washing twice with 150 μL. of FACS buffer per well, the cells were resuspended in FACS buffer with α-hFc-647 secondary diluted 1:1000-2000. Assay plates were then left to incubate at 4° C. for 20-30 minutes. After one additional wash with 150 μL of FACS buffer, bound antibody was detected by flow cytometry. Flow cytometric detection was performed on an Intellicyt iQue Plus or Accuri iQue. NKp46 transfected cells were gated on as GFP positive, and polypeptide binding was measured as median fluorescence at 647 nm.

[3] = molecular target: T2, mouse NKp46 (mouse, UniProt Q8C567 17-325); experiment: flow cytometry, HEK293F cells transfected with mouse NKp46
T2 construct: whole, on cells
T2 sequence (looked up): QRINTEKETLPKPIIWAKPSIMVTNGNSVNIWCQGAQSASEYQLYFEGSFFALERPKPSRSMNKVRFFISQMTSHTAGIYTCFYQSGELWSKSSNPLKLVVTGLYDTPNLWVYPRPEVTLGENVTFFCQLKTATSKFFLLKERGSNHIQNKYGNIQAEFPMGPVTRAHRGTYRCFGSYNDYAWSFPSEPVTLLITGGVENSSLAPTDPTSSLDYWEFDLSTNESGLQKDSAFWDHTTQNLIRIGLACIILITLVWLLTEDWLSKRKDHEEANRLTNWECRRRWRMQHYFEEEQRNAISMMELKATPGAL
Procedure: as §1

[4] = molecular target: T3, cynomolgus NKp46 (cynomolgus monkey, UniProt Q95JB9 22-306); experiment: flow cytometry, HEK293F cells transfected with cyno NKp46
T3 construct: also called cyno NKp46; cynomolgus monkey NKp46
T3 sequence (Q95JB9 22-306 limits assumed): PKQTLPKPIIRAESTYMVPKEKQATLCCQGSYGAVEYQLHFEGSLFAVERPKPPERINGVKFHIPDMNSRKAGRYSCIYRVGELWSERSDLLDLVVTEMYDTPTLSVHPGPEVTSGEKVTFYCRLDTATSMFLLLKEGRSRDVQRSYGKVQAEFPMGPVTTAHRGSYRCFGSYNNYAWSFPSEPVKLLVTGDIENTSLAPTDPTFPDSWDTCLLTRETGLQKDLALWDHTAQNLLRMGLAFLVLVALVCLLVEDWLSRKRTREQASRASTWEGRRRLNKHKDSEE
Procedure: as §1

[5] = molecular target: T1, human NKp46; experiment: flow cytometry, HEK293F cells transfected with human NKp46; remark: listed apart in the source
Procedure: as §1

[6] = molecular target: T2, mouse NKp46; experiment: flow cytometry, HEK293F cells transfected with mouse NKp46; remark: listed apart in the source
Procedure: as §1

[7] = molecular target: T3, cynomolgus NKp46; experiment: flow cytometry, HEK293F cells transfected with cyno NKp46; remark: listed apart in the source
Procedure: as §1

pSTAT5 EC50 on CD56brightCD16- NK cells [1]: < 80 pM | pSTAT5 EC50 on CD56dimCD16+ NK cells and total NK cells [1]: < 0.4 nM
B1: hz5D7v12-Fc xELL-Hole; and hz5D7v12-Fc xELL-Knob-IL2-T3A-H16A-E61R-P65R-D84Y-C125S (cx10454) (Fc fusion)
chain 1: EVQLVESGGGEVQPGGSLRLSCAASGRTFASAAMGWFRQAPGKEREFVAAISRSDDTYYAESVKGRFTISRDNAKNTVYLQMSSLRAEDTAVYYCAAVVPTYGSNIYVHSAAYNYWGQGTLVTVKPGGGGDKTHTCPPCPAPGGPSVFLFPPKPKDTLMISRTPEVTCVVVDVSHEDPEVKFNWYVDGVEVHNAKTKPREEQYNSTYRVVSVLTVLHQDWLNGKEYKCKVSNKALPAPIEKTISKAKGQPREPQVYTLPPCRDELTKNQVSLWCLVKGFYPSDIAVEWESNGQPENNYKTTPPVLDSDGSFFLYSKLTVDKSRWQQGNVFSCSVMHEALHNHYTQKSLSLSPGGSGGSAPASSSTKKTQLQLEALLLDLQMILNGINNYKNPKLTRMLTFKFYMPKKATELKHLQCLERELKRLEEVLNLAQSKNFHLRPRYLISNINVIVLELKGSETTFMCEYADETATIVEFLNRWITFSQSIISTLT
chain 2: EVQLVESGGGEVQPGGSLRLSCAASGRTFASAAMGWFRQAPGKEREFVAAISRSDDTYYAESVKGRFTISRDNAKNTVYLQMSSLRAEDTAVYYCAAVVPTYGSNIYVHSAAYNYWGQGTLVTVKPGGGGDKTHTCPPCPAPGGPSVFLFPPKPKDTLMISRTPEVTCVVVDVSHEDPEVKFNWYVDGVEVHNAKTKPREEQYNSTYRVVSVLTVLHQDWLNGKEYKCKVSNKALPAPIEKTISKAKGQPREPQVCTLPPSRDELTKNQVSLSCAVKGFYPSDIAVEWESNGQPENNYKTTPPVLDSDGSFFLVSKLTVDKSRWQQGNVFSCSVMHEALHNRYTQKSLSLSPG

pSTAT5 EC50 on CD56brightCD16- NK cells [1]: < 80 pM | pSTAT5 EC50 on CD56dimCD16+ NK cells and total NK cells [1]: < 0.4 nM
B2: hz5D7v17-Fc xELL-Hole; and hz5D7v17-Fc xELL-Knob-IL2-T3A-H16A-E61R-P65R-D84Y-C125S (cx11314) (Fc fusion)
chain 1: B1 chain 1 with K125R
chain 2: EVQLVESGGGEVQPGGSLRLSCAASGRTFASAAMGWFRQAPGKEREFVAAISRSDDTYYAESVKGRFTISRDNAKNTVYLQMSSLRAEDTAVYYCAAVVPTYGSNIYVHSAAYNYWGQGTLVTVRPGGGGDKTHTCPPCPAPGGPSVFLFPPKPKDTLMISRTPEVTCVVVDVSHEDPEVKFNWYVDGVEVHNAKTKPREEQYNSTYRVVSVLTVLHQDWLNGKEYKCKVSNKALPAPIEKTISKAKGQPREPQVCTLPPSRDELTKNQVSLSCAVKGFYPSDIAVEWESNGQPENNYKTTPPVLDSDGSFFLVSKLTVDKSRWQQGNVFSCSVMHEALHNRYTQKSLSLSPGK

Bmax (MFI) [2]: 930000 MFI | Kd [2]: 0.203 nM | Bmax (MFI) [3]: 1.12e+06 MFI | Kd [3]: 0.696 nM | Bmax (MFI) [4]: 53500 MFI | Kd [4]: 0.526 nM
B3: NKp46-hz5D7v8-Fc* (Fc fusion)
chain: EVQLVESGGGEVQPGGSLRLSCAASGRTFASAAMGWFRQAPGKEREFVAAISRSVGDTYYADSVKGRFTISRDNAKNTVYLQMSSLRAEDTAVYYCAAVVPTYGNNIYVHSAAYNYWGQGTLVTVKPGGGGPSVFLFPPKPKDTLMISRTPEVTCVVVDVSHEDPEVKFNWYVDGVEVHNAKTKPREEQYNSTYRVVSVLTVLHQDWLNGKEYKCKVSNKALPAPIEKTISKAKGQPREPQVYTLPPSRDELTKNQVSLTCLVKGFYPSDIAVEWESNGQPENNYKTTPPVLDSDGSFFLYSKLTVDKSRWQQGNVFSCSVMHEALHNHYTQKSLSLSPG
notes: VHH-Fc fusion with an IgG1 Fc lacking a hinge (Fc*); also called NKp46-bz5D7v8-Fc*

Bmax (MFI) [2]: 1.05e+06 MFI | Kd [2]: 0.392 nM | Bmax (MFI) [3]: 1.22e+06 MFI | Kd [3]: 0.941 nM | Bmax (MFI) [4]: 61900 MFI | Kd [4]: 0.655 nM
B4: NKp46-hz5D7v9-Fc* (Fc fusion)
chain: B3 chain with G56D
notes: VHH-Fc fusion with an IgG1 Fc lacking a hinge (Fc*)

Bmax (MFI) [2]: 790000 MFI | Kd [2]: 0.139 nM | Bmax (MFI) [3]: 1.17e+06 MFI | Kd [3]: 0.468 nM | Bmax (MFI) [4]: 67600 MFI | Kd [4]: 0.691 nM
B5: NKp46-hz5D7v1-Fc* (Fc fusion)
chain: EVQLVESGGGEVQPGGSLRLSCAASGRTFASAAMGWFRQAPGKGREFVAAISRSDDTYYAESVKGRFTISRDNAKNTLYLQMSSLRAEDTAVYYCAAVVPTYGNNIYVHSAAYNYWGQGTLVTVKPGGGGPSVFLFPPKPKDTLMISRTPEVTCVVVDVSHEDPEVKFNWYVDGVEVHNAKTKPREEQYNSTYRVVSVLTVLHQDWLNGKEYKCKVSNKALPAPIEKTISKAKGQPREPQVYTLPPSRDELTKNQVSLTCLVKGFYPSDIAVEWESNGQPENNYKTTPPVLDSDGSFFLYSKLTVDKSRWQQGNVFSCSVMHEALHNHYTQKSLSLSPG
notes: as for B4

Bmax (MFI) [2]: 866000 MFI | Kd [2]: 0.23 nM | Bmax (MFI) [3]: 1.17e+06 MFI | Kd [3]: 0.613 nM | Bmax (MFI) [4]: 64600 MFI | Kd [4]: 0.703 nM
B6: NKp46-hz5D7v7-Fc* (Fc fusion)
chain: B5 chain with G44E, D55G, E61D, L78V
notes: VHH-Fc fusion with an IgG1 Fc lacking a hinge (Fc*); also called NKp46-bz5D7v7-Fc*

Bmax (MFI) [5]: 143000 MFI | Kd [5]: 0.237 nM | Bmax (MFI) [6]: 34300 MFI | Kd [6]: 0.729 nM | Bmax (MFI) [7]: 16400 MFI | Kd [7]: 0.428 nM
B7: NKp46-hz5D7v15-Fc* (Fc fusion)
chain: B5 chain with G44E, L78V, N105A
notes: as for B4

Bmax (MFI) [2]: 938000 MFI | Kd [2]: 0.762 nM | Bmax (MFI) [3]: 1.21e+06 MFI | Kd [3]: 0.729 nM | Bmax (MFI) [4]: 51500 MFI | Kd [4]: 0.902 nM
B8: NKp46-hz5D7v2-Fc* (Fc fusion)
chain: B5 chain with G44E
notes: VHH-Fc fusion with an IgG1 Fc lacking a hinge (Fc*); also called NKp46-bz5D7v2-Fc*

Bmax (MFI) [5]: 149000 MFI | Kd [5]: 0.14 nM | Bmax (MFI) [6]: 49300 MFI | Kd [6]: 0.513 nM | Bmax (MFI) [7]: 17900 MFI | Kd [7]: 0.455 nM
B9: NKp46-hz5D7v12-Fc* (Fc fusion)
chain: B5 chain with G44E, L78V, N104S
notes: as for B4

Bmax (MFI) [5]: 150000 MFI | Kd [5]: 0.234 nM | Bmax (MFI) [6]: 38100 MFI | Kd [6]: 0.604 nM | Bmax (MFI) [7]: 18800 MFI | Kd [7]: 0.748 nM
B10: NKp46-hz5D7v13-Fc* (Fc fusion)
chain: B5 chain with G44E, L78V, N105T
notes: as for B4

Kd [2]: 0.189 nM | Kd [3]: 0.887 nM | Kd [4]: 0.446 nM
B11: NKp46-hz5D7v4-Fc* (Fc fusion)
chain: B5 chain with G44E, E61D, L78V
notes: as for B4

Bmax (MFI) [2]: 1.04e+06 MFI | Kd [2]: 0.172 nM | Bmax (MFI) [3]: 1.07e+06 MFI | Kd [3]: 0.487 nM | Bmax (MFI) [4]: 58600 MFI | Kd [4]: 0.538 nM
B12: NKp46-5D7-Fc* (Fc fusion)
chain: QVTLRESGASLSLTCAASGRTFASAAMGWFRQAPGEEREFVAAISRSDDTYYADSVKGRFTISRDNAKNTVYLQMNSLKSEDTAVYYCAAVVPTYGNNIYVHSAAYNYWGQGTQVTVKPGGGGGPSVFLFPPKPKDTLMISRTPEVTCVVVDVSHEDPEVKFNWYVDGVEVHNAKTKPREEQYNSTYRVVSVLTVLHQDWLNGKEYKCKVSNKALPAPIEKTISKAKGQPREPQVYTLPPSRDELTKNQVSLTCLVKGFYPSDIAVEWESNGQPENNYKTTPPVLDSDGSFFLYSKLTVDKSRWQQGNVFSCSVMHEALHNHYTQKSLSLSPG
notes: VHH-Fc fusion with an IgG1 Fc lacking a hinge (Fc*); also called 5D7 VHH

Kd [2]: 0.269 nM | Kd [3]: 0.82 nM | Kd [4]: 1.06 nM
B13: NKp46-hz5D7v10-Fc* (Fc fusion)
chain: EVQLVESGGSLRLSCAASGRTFASAAMGWFRQAPGKEREFVAAISRSDDTYYADSVKGRFTISRDNAKNTVYLQMSSLRAEDTAVYYCAAVVPTYGNNIYVHSAAYNYWGQGTLVTVKPGGGGPSVFLFPPKPKDTLMISRTPEVTCVVVDVSHEDPEVKFNWYVDGVEVHNAKTKPREEQYNSTYRVVSVLTVLHQDWLNGKEYKCKVSNKALPAPIEKTISKAKGQPREPQVYTLPPSRDELTKNQVSLTCLVKGFYPSDIAVEWESNGQPENNYKTTPPVLDSDGSFFLYSKLTVDKSRWQQGNVFSCSVMHEALHNHYTQKSLSLSPG
notes: as for B4

— patent US20240376198A1 (INHIBRX, published 2024)
